How the values were obtained:
HIS-PI3K/p85-SH3 [1] = molecular target: T1, HIS-PI3K/p85-SH3 (Homo sapiens, UniProt O00459); test: GST-pull down assay; type: binding; conditions: 3 mg/ml HIS-PI3K/p85-SH3; control GST-protein did not retain
T1 construct: the Src Homology 3 (SH3) domain of the regulatory subunit of PI3K were produced; made in house; host or cells: bacteria (IPTG induction)
T1 sequence (O00459 4-80 limits assumed): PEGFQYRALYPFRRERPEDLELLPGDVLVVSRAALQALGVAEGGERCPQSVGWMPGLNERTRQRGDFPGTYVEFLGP
T1 sequence (Q5VST9 5895-6004 partner limits assumed): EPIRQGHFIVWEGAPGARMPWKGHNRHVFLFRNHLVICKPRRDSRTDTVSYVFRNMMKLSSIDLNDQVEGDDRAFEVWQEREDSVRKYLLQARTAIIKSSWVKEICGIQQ
Description: (§1) The Pleckstrin Homology (PH) domain of obscurin and the Src Homology 3 (SH3) domain of the regulatory subunit of PI3K were produced as glutathione-S-transferase (GST, PGEX vector; GE Healthcare Life Sciences) and His (pET-30a(+) vector; EMD Millipore, Billerica, Mass.) tagged proteins, respectively, according to the manufacturers' instructions and established methods (19). Human cDNA from normal breast tissue was purchased from a commercial source (Origene, Atlanta, Ga.), and the following sets of primers were used for amplification of the obscurin-PH and the PI3K/p85-SH3 domains: Sense-Obsc-PH: 5′ CCCATCCGCCAGGGC 3′ (SEQ ID NO 1) and Antisense-Obsc-PH: 5′ AGGCAGGGCCAGACG 3′ (NM_001098623.2) (SEQ ID NO 2), and Sense-PI3K/p85-SH3: 5′ CCTGAGGGCTTCCAG 3′ (SEQ ID NO 3) and Antisense-PI3K/p85-SH3: 5′ TCAGGGCCCCAGGAA 3′ (NM_005027) (SEQ ID NO 4). GST- and His-tagged recombinant proteins were expressed by induction with 0.5 mM isopropyl β-D-thioglucopyranoside (IPTG) for 3 h and purified by affinity chromatography on glutathione-Sepharose (Thermo Fisher Scientific) or Talon cobalt (Thermo Fisher Scientific) columns, respectively, following the manufacturers' instructions.
GST-pull down assays were performed (19, 20). […]

HIS-PI3K/p85-SH3 [2] = molecular target: T1, HIS-PI3K/p85-SH3; test: Surface plasmon resonance (Biacore 3000) of obscurin-PH binding to PI3K/p85-SH3; conditions: GST-obscurin-PH immobilized ligand, HIS-PI3K/p85-SH3 analyte 8-250 nM; 1:1 Langmuir model, at equilibrium; read-out: dissociation constant, KD
Description: as §1, with “GST- and His-tagged recombinant proteins were expressed by induction with 0.5 mM isopropyl β-D-thioglucopyranoside (IPTG) for 3 h and purified by affinity chromatography on glutathione-Sepharose (Thermo Fisher Scientific) or Talon cobalt (Thermo Fisher Scientific) columns, respectively, following the manufacturers' instructions.” left out
Surface plasmon resonance was performed using a BiaCore 3000 instrument as described (6, 19, 21). […] For each analyte concentration, association was measured for 180 sec and dissociation was measured over another 180 sec. Data were evaluated with the 1:1 Langmuir model and the Heterogeneous Ligand model (BIAevaluation Software 3.1, Biacore). The association (ka, M^−1 s^−1) and dissociation (kd, s^−1) rate constants as well as the association (KA, M^−1) and dissociation (KD, M) equilibrium constants were determined.

B1: GST-obscurin-PH: recombinant Pleckstrin Homology (PH) domain of obscurin fused to GST, bacterially expressed (~37 kDa) (protein)
chain: T1 sequence (Q5VST9 5895-6004 partner limits assumed)
modifications: left off: a dimerising Fc or GST
retention of HIS-PI3K/p85-SH3 in GST-pull down (HIS-PI3K/p85-SH3 [1]): able to efficiently and specifically retain HIS-PI3K/p85-SH3
Kd (HIS-PI3K/p85-SH3 [2]): ~50 nM

— patent US20170363632A1, “Biomarker Kit for Metastatic Breast Cancer Prognosis and Uses Thereof” (University of Maryland, Baltimore, priority 2016, published 2017)
